Legend:
[1] = substrate: CCCCCCCCO[C@@H]1O[C@H](CO)[C@@H](O)[C@H](O)[C@H]1O; assay: Enzyme kinetics on glycoside substrates, released glucose, Michaelis-Menten (Bgl2); assay type: biochemical, Yarrowia lipolytica; settings: other: apparent, 0.13 nM Bgl2, mean of three experiments, SD below 10%
[2] = substrate: OC[C@H]1O[C@@H](O[C@H]2[C@H](O)[C@@H](O)C(O)O[C@@H]2CO)[C@H](O)[C@@H](O)[C@@H]1O; assay: as above; assay type: biochemical, Yarrowia lipolytica; settings: other: apparent, 0.13 nM Bgl2, mean of three experiments, SD below 10%
[3] = substrate: OC[C@H]1O[C@@H](O[C@H]2[C@H](O)[C@@H](O)[C@H](O[C@H]3[C@H](O)[C@@H](O)[C@H](O[C@H]4[C@H](O)[C@@H](O)[C@H](O[C@H]5[C@H](O)[C@@H](O)C(O)O[C@@H]5CO)O[C@@H]4CO)O[C@@H]3CO)O[C@@H]2CO)[C@H](O)[C@@H](O)[C@@H]1O; assay: as above; assay type: biochemical, Yarrowia lipolytica; settings: other: apparent, 0.13 nM Bgl2, mean of three experiments, SD below 10%
[4] = substrate: OC[C@H]1O[C@@H](O[C@H]2[C@H](O)[C@@H](O)[C@H](O[C@H]3[C@H](O)[C@@H](O)[C@H](O[C@H]4[C@H](O)[C@@H](O)C(O)O[C@@H]4CO)O[C@@H]3CO)O[C@@H]2CO)[C@H](O)[C@@H](O)[C@@H]1O; assay: purified protein, by the assay type; settings: other: apparent; 0.13 nM Bgl2; released glucose; mean of three experiments, SD below 10%
[5] = substrate: OC[C@H]1O[C@@H](OC[C@H]2OC(O)[C@H](O)[C@@H](O)[C@@H]2O)[C@H](O)[C@@H](O)[C@@H]1O; assay: purified protein, by the assay type; settings: other: apparent; 0.13 nM Bgl2; released glucose; mean of three experiments, SD below 10%
[6] = substrate: OC[C@H]1O[C@@H](O[C@H]2[C@H](O)[C@@H](CO)OC(O)[C@@H]2O)[C@H](O)[C@@H](O)[C@@H]1O; assay: purified protein, by the assay type; settings: other: apparent; 0.13 nM Bgl2; released glucose; mean of three experiments, SD below 10%
[7] = substrate: OC[C@H]1O[C@@H](O[C@H]2[C@H](O)[C@@H](O)[C@H](O[C@H]3[C@H](O)[C@@H](O)[C@H](O[C@H]4[C@H](O)[C@@H](O)[C@H](O[C@H]5[C@H](O)[C@@H](O)[C@H](O[C@H]6[C@H](O)[C@@H](O)C(O)O[C@@H]6CO)O[C@@H]5CO)O[C@@H]4CO)O[C@@H]3CO)O[C@@H]2CO)[C@H](O)[C@@H](O)[C@@H]1O; assay: purified protein, by the assay type; settings: other: apparent; 0.13 nM Bgl2; released glucose; mean of three experiments, SD below 10%
[8] = substrate: OC[C@H]1O[C@@H](O[C@H]2[C@H](O)[C@@H](O)[C@H](O[C@H]3[C@H](O)[C@@H](O)C(O)O[C@@H]3CO)O[C@@H]2CO)[C@H](O)[C@@H](O)[C@@H]1O; assay: purified protein, by the assay type; settings: other: apparent; 0.13 nM Bgl2; released glucose; mean of three experiments, SD below 10%
[9] = substrate: OC[C@H]1O[C@@H](O[C@H]2C(O)O[C@H](CO)[C@@H](O)[C@@H]2O)[C@H](O)[C@@H](O)[C@@H]1O; assay: purified protein, by the assay type; settings: other: apparent; 0.13 nM Bgl2; released glucose; mean of three experiments, SD below 10%
[10] = substrate: CCCCCCCCO[C@@H]1O[C@H](CO)[C@@H](O)[C@H](O)[C@H]1O; assay: Enzyme kinetics on glycoside substrates, released glucose, Michaelis-Menten (Bgl1-His6); assay type: biochemical, Yarrowia lipolytica; settings: other: apparent, 0.120 nM Bgl1-His6, mean of three experiments, SD below 10%, pH 7.4, 28.0 °C
Procedure: (§1) Y. lipolytica JMY1212 overproducing Bgl1-His6 and Bgl2 were grown in 200 mL YTD medium at 130 rpm, 28° C. for 36 h before centrifugation at 8,000×g for 5 min. For purification of Bgl1-His6, the cell pellet was washed, suspended in 50 mL phosphate buffer (50 mM, pH 7.4) and homogenized over a 3-min period using a MP FastPrep-24 Instrument. After centrifugation (8,000×g for 5 min at 4° C.), the supernatant was applied to 2 mL of TALON Metal Affinity Resin (Clontech Takara-Bio, Kyoto, Japan) and protein was eluted using imidazole buffer according to the manufacturer's instructions.
(§2) When using aryl-substrates, the standard assay method was employed, simply replacing pNPGlc by another substrate as appropriate. For oligosaccharides, the release of glucose was quantified using an enzyme kit (D-Fructose/D-Glucose Assay Kit, liquid stable, Megazyme). […] Initial rates were fitted to the Michaelis-Menten kinetic equation using a nonlinear regression (SigmaPlot 10) to extract the apparent KM and kcat (Segel, 1993).

[11] = substrate: OC[C@H]1O[C@@H](O[C@H]2[C@H](O)[C@@H](O)C(O)O[C@@H]2CO)[C@H](O)[C@@H](O)[C@@H]1O; assay: as above; assay type: biochemical, Yarrowia lipolytica; settings: other: apparent, 0.120 nM Bgl1-His6, mean of three experiments, SD below 10%, pH 7.4, 28.0 °C
Procedure: as §1, §2

[12] = substrate: OC[C@H]1O[C@@H](O[C@H]2[C@H](O)[C@@H](O)[C@H](O[C@H]3[C@H](O)[C@@H](O)[C@H](O[C@H]4[C@H](O)[C@@H](O)C(O)O[C@@H]4CO)O[C@@H]3CO)O[C@@H]2CO)[C@H](O)[C@@H](O)[C@@H]1O; assay: as above; assay type: biochemical, Yarrowia lipolytica; settings: other: apparent, 0.120 nM Bgl1-His6, mean of three experiments, SD below 10%, pH 7.4, 28.0 °C
Procedure: as §1, §2

[13] = substrate: OC[C@H]1O[C@@H](OC[C@H]2OC(O)[C@H](O)[C@@H](O)[C@@H]2O)[C@H](O)[C@@H](O)[C@@H]1O; assay: as above; assay type: biochemical, Yarrowia lipolytica; settings: other: apparent, 0.120 nM Bgl1-His6, mean of three experiments, SD below 10%, pH 7.4, 28.0 °C
Procedure: as §1, §2

[14] = substrate: OC[C@H]1O[C@@H](O[C@H]2[C@H](O)[C@@H](CO)OC(O)[C@@H]2O)[C@H](O)[C@@H](O)[C@@H]1O; assay: as above; assay type: biochemical, Yarrowia lipolytica; settings: other: apparent, 0.120 nM Bgl1-His6, mean of three experiments, SD below 10%, pH 7.4, 28.0 °C
Procedure: as §1, §2

[15] = substrate: OC[C@H]1O[C@@H](O[C@H]2[C@H](O)[C@@H](O)[C@H](O[C@H]3[C@H](O)[C@@H](O)[C@H](O[C@H]4[C@H](O)[C@@H](O)[C@H](O[C@H]5[C@H](O)[C@@H](O)[C@H](O[C@H]6[C@H](O)[C@@H](O)C(O)O[C@@H]6CO)O[C@@H]5CO)O[C@@H]4CO)O[C@@H]3CO)O[C@@H]2CO)[C@H](O)[C@@H](O)[C@@H]1O; assay: as above; assay type: biochemical, Yarrowia lipolytica; settings: other: apparent, 0.120 nM Bgl1-His6, mean of three experiments, SD below 10%, pH 7.4, 28.0 °C
Procedure: as §1, §2

[16] = substrate: OC[C@H]1O[C@@H](O[C@H]2[C@H](O)[C@@H](O)[C@H](O[C@H]3[C@H](O)[C@@H](O)[C@H](O[C@H]4[C@H](O)[C@@H](O)[C@H](O[C@H]5[C@H](O)[C@@H](O)C(O)O[C@@H]5CO)O[C@@H]4CO)O[C@@H]3CO)O[C@@H]2CO)[C@H](O)[C@@H](O)[C@@H]1O; assay: as above; assay type: biochemical, Yarrowia lipolytica; settings: other: apparent, 0.120 nM Bgl1-His6, mean of three experiments, SD below 10%, pH 7.4, 28.0 °C
Procedure: as §1, §2

[17] = substrate: OC[C@H]1O[C@@H](O[C@H]2[C@H](O)[C@@H](O)[C@H](O[C@H]3[C@H](O)[C@@H](O)C(O)O[C@@H]3CO)O[C@@H]2CO)[C@H](O)[C@@H](O)[C@@H]1O; assay: as above; assay type: biochemical, Yarrowia lipolytica; settings: other: apparent, 0.120 nM Bgl1-His6, mean of three experiments, SD below 10%, pH 7.4, 28.0 °C
Procedure: as §1, §2

[18] = substrate: OC[C@H]1O[C@@H](O[C@H]2C(O)O[C@H](CO)[C@@H](O)[C@@H]2O)[C@H](O)[C@@H](O)[C@@H]1O; assay: as above; assay type: biochemical, Yarrowia lipolytica; settings: other: apparent, 0.120 nM Bgl1-His6, mean of three experiments, SD below 10%, pH 7.4, 28.0 °C
Procedure: as §1, §2

B1: Yarrowia lipolytica β-glucosidase Bgl2 (YALI_BGL2, YALI0B14289g, SEQ ID NO: 6; mature SEQ ID NO: 2), native (Yarrowia lipolytica CLIB122) (protein)
chain: DPFSDKDAYKHSPPYYPAPEIGRVPTDLRWRAALKVAQGMVANMTLLEKVNITTGTGWEMGPCVGNTGTVERLGIKSLCLQDGPLGIRFADLITTFPAGITIASTFSRQLVRERGAAMGRENRRKGVDITLSPVVGPLGRHANGGRIWEGFSADPYLAGKLAAEAVTGIQGQNVMAVVKHMVGNEQEHFRQLGEWQGFGFKDLKQPLSSNIDDRTLNEAYLWPFADAVRANVGSVMCSYQQINGSQGCQNAHILNGKLKEEMGFQGFVMSDWLAQRSGVASVLAGLDMSMPGDGLVWADGVPLMGYELTRSVLNGTIDESRVDDMVTRILTPILYLSITPTDPNFSSWTNDTTSYKYYGAKAGGNVTVNRHIDVRDQYTTKAALDGANAALVLLKNEKKTLPLNPTNIGNLNIFGIGSKTGPLGAVCGENMQCSDGALIEGWGSGSVYPTDYQSPYDAIKERASKDNITIGGTTQSWGNLSNVEILSAAADASVVFVLSDSGESTGIVDGNIGDRNNLTLWHNGDEVVKAVASKNPNTIVVVTTVGPVNLEKWIDNPNVTAVLLTGPAGDFGGRAAASILFGDIAPSGKLPFTIAKNDTDYIPLTTKIPEDGLPQDYFTEGTLLDYKRFDENQVTPRFEFGYGLSYSNITVENLEARYAFPSIPEFLPTPFAPSNPNKPKNAFTPHANESVFPSDIDPLNKYVYPYLNDTSEIFSNETHYPYPEGYSSEQSNSTNINGGAVGGNPALWLSAVYIVHSVSNYGPYDTGVVTQMYIAFPQDNDDLKTAPRQLRGFERSELKVGERQGILYDVQWRDLAVWDVKLQSWRVQRGEYKVYVGHSSRDFVLTTSFTLK
[1]
  Km: 1300 µM
  kcat: 111.1 s⁻¹
  kcat/Km: 85200 M⁻¹ s⁻¹
[2]
  Km: 790 µM
  kcat: 5.1 s⁻¹
  kcat/Km: 6500 M⁻¹ s⁻¹
[3]
  Km: 2240 µM
  kcat: 27.5 s⁻¹
  kcat/Km: 12300 M⁻¹ s⁻¹
[4]
  Km: 1860 µM
  kcat: 20.6 s⁻¹
  kcat/Km: 11000 M⁻¹ s⁻¹
[5]
  Km: 1840 µM
  kcat: 186.5 s⁻¹
  kcat/Km: 101000 M⁻¹ s⁻¹
[6]
  Km: 890 µM
  kcat: 211.1 s⁻¹
  kcat/Km: 237000 M⁻¹ s⁻¹
[7]
  Km: 2370 µM
  kcat: 30.5 s⁻¹
  kcat/Km: 12900 M⁻¹ s⁻¹
[8]
  Km: 990 µM
  kcat: 9.5 s⁻¹
  kcat/Km: 9600 M⁻¹ s⁻¹
[9]
  Km: 2400 µM
  kcat: 41.2 s⁻¹
  kcat/Km: 17200 M⁻¹ s⁻¹

B2: Yarrowia lipolytica β-glucosidase Bgl1-His6 (YALI_BGL1, YALI0F16027g, SEQ ID NO: 4; mature SEQ ID NO: 1), His6-tagged (Yarrowia lipolytica CLIB122) (protein)
chain: SPDWYPTPEIGSITSDWADALGESMDILAQLTLPEKVNITTGTGWRGGQCVGNTGAVPRLGIKGLCLQDGPLGVRFADFVNVFPCQNAMAATFDRILVHQRGTAIGRQSRLKGVDVHLGPVVGPLGRHATGGRNWEGFSPDPYLSGKLAFEAILGVQEEGVLATIKHFIGNEQEHYRRAEEWRDGFGFKDLKDAVSSNIEDRALHELYMWPFADAVRANVGSVMCSYNYVNGTQACQNSDLLNGKLKSELGFQGFVMSDWFAQGSGVSNALAGMDMSMPGNDVDELETVFWGEQLTRMVANGTLPEARLDDMVLRILTPLIYFGIDDRTPNFSSFVDTTVGSPHPAAKHSKKVKDVITNYHLDVRDQFAANVALDSARGAVVLLFNDGILPLKNISAIGVFGVGSRLGPNGAVCGENMQCSDGALIEGWGSGTAYPTEYESPYEALHKKASLLEVSVTGTTESWDMRLPLELAGDTDVNIVYVLANSGESTANVDKNLGDRRNVSLWHNGDELINTVASQGQTVVVVTTVGQVDMTAWLNHPNISAVLLTAPAGDYGGKAIADVLFGEVNPSGKLPYTIAANTSDYIPIVTKIPRDGAPQSDFVEGIYLDYKWYDKFERTPLYEFGYGLSYTTYSFSNLHLDVKEISEFLPPRPVPVQVTKPKMTNIDIEDLYVPNDFKMIDGLVYPWILNASAPLADSQTQFPFANGAGHVSDASGGVGGHPWLWSNAVTVTHNTTNCGDVAGRVVSQLYVAFPETLIDSPPVQLRGFDKSKLLNPGESQMTEYNLNWRDLAIWDVELQSWRVQRGEYSVYIGHSSREFELCETFTL
[10]
  Km: 860 µM
  kcat: 32.8 s⁻¹
  kcat/Km: 38100 M⁻¹ s⁻¹
[11]
  Km: 260 µM
  kcat: 21.1 s⁻¹
  kcat/Km: 81100 M⁻¹ s⁻¹
[12]
  Km: 1890 µM
  kcat: 30.9 s⁻¹
  kcat/Km: 16300 M⁻¹ s⁻¹
[13]
  Km: 1160 µM
  kcat: 43.6 s⁻¹
  kcat/Km: 37600 M⁻¹ s⁻¹
[14]
  Km: 680 µM
  kcat: 75.6 s⁻¹
  kcat/Km: 111000 M⁻¹ s⁻¹
[15]
  Km: 3010 µM
  kcat: 31.5 s⁻¹
  kcat/Km: 10500 M⁻¹ s⁻¹
[16]
  Km: 2180 µM
  kcat: 29.5 s⁻¹
  kcat/Km: 13500 M⁻¹ s⁻¹
[17]
  Km: 430 µM
  kcat: 20.5 s⁻¹
  kcat/Km: 47700 M⁻¹ s⁻¹
[18]
  Km: 2250 µM
  kcat: 28.4 s⁻¹
  kcat/Km: 14800 M⁻¹ s⁻¹
